According to patent publication US20140057857A1 (RESEARCH FOUNDATION FOR THE STATE UNIVERSITY OF NEW YORK, published 2014):
Numbered stars: 1 amine (or outer) side, 2 acyl side, 3 side chain; on linkers, the order of the positions; unused ones are H or OH. Bridge positions count the residues as written; N and C are the ends. Square brackets hold non-standard residues; d marks the D form. Ends that are not written are not given here. CH2(3,3'-bipyridine-6,6')CH2 = c1cc(C[*:1])ncc1-c1ccc(C[*:2])nc1; Biphenyl(4,4'-CH2)2 = c1cc(-c2ccc(C[*:2])cc2)ccc1C[*:1]

T1: GST-MDMX containing full-length human MDMX (human, UniProt O15151 1-490)
T1 construct: mature; MDMX', expressed in E. coli as a GST fusion; 'mature' stands for full-length; not shown: GST tag
T1 sequence (looked up): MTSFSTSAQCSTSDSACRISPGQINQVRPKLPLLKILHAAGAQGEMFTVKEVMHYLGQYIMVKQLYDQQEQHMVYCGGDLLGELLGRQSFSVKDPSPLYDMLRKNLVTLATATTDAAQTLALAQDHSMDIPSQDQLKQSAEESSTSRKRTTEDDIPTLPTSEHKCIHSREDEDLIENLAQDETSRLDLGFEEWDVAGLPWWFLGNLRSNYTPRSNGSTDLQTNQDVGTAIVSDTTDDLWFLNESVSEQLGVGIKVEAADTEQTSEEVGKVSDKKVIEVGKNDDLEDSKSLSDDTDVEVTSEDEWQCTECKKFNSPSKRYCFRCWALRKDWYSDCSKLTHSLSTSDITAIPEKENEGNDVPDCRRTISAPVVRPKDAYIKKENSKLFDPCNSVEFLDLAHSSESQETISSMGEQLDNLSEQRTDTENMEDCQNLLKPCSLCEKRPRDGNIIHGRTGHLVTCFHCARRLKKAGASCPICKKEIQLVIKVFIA

B1: Cross-linked Noxa peptide 5a (Bph, L,L-cysteines at 77/84) (peptide)
peptide: AAXLRRIGDXVNLRQKLLN
modifications: Cys 3 and Cys 10 of the peptide (NoxaB 77 and 84) cross-linked by Bph; N-terminal acetyl; C-terminal amide
B2: Cross-linked Noxa peptide 6a (Bph, D-Cys 77 / L-Cys 84) (peptide)
peptide: AAXLRRIGDXVNLRQKLLN
modifications: D-cysteine at position 3; D-Cys 3 and L-Cys 10 cross-linked by Bph; N-terminal acetyl; C-terminal amide
B3: Cross-linked Noxa peptide 8a (Bph, alpha-methyl-L-cysteines at 77/84) (peptide)
peptide: AAXLRRIGDXVNLRQKLLN
modifications: alpha-methyl-L-cysteine at positions 3 and 10, cross-linked by Bph; N-terminal acetyl; C-terminal amide
B4: Cross-linked Noxa peptide 6b (Bpy, D-Cys 77 / L-Cys 84) (peptide)
peptide: AAXLRRIGDXVNLRQKLLN
modifications: D-cysteine at position 3; D-Cys 3 and L-Cys 10 cross-linked by Bpy; N-terminal acetyl; C-terminal amide
B5: Cross-linked Noxa peptide 5b (Bpy, L,L-cysteines at 77/84) (peptide)
peptide: AAXLRRIGDXVNLRQKLLN
modifications: Cys 3 and Cys 10 of the peptide (NoxaB 77 and 84) cross-linked by Bpy; N-terminal acetyl; C-terminal amide
B6: Cross-linked Noxa peptide 7a (Bph, L,L-cysteines at 80/87) (peptide)
peptide: Ac-AAQLRCIGDKVNCRQKLLN-NH2
modifications: linker 6-13 via Biphenyl(4,4'-CH2)2
SMILES: CC[C@H](C)[C@@H]1NC(=O)[C@@H](NC(=O)[C@H](CCCNC(=N)N)NC(=O)[C@H](CC(C)C)NC(=O)[C@H](CCC(N)=O)NC(=O)[C@H](C)NC(=O)[C@H](C)NC(C)=O)CSCc2ccc(cc2)-c2ccc(cc2)CSC[C@@H](C(=O)N[C@@H](CCCNC(=N)N)C(=O)N[C@@H](CCC(N)=O)C(=O)N[C@@H](CCCCN)C(=O)N[C@@H](CC(C)C)C(=O)N[C@@H](CC(C)C)C(=O)N[C@@H](CC(N)=O)C(N)=O)NC(=O)[C@H](CC(N)=O)NC(=O)[C@H](C(C)C)NC(=O)[C@H](CCCCN)NC(=O)[C@H](CC(=O)O)NC(=O)CNC1=O
notes: Printed as AAQLRC'IGDKVNC'RQKLLN
B7: PDI analog 3b (Bpy cross-linked D,L-dicysteine peptide) (peptide)
peptide: Ac-LTF[dC]HYWAQLCS-NH2
modifications: linker 4-11 via CH2(3,3'-bipyridine-6,6')CH2
SMILES: CC(=O)N[C@@H](CC(C)C)C(=O)N[C@H](C(=O)N[C@@H](Cc1ccccc1)C(=O)N[C@@H]1CSCc2ccc(cn2)-c2ccc(nc2)CSC[C@@H](C(=O)N[C@@H](CO)C(N)=O)NC(=O)[C@H](CC(C)C)NC(=O)[C@H](CCC(N)=O)NC(=O)[C@H](C)NC(=O)[C@H](Cc2c[nH]c3ccccc23)NC(=O)[C@H](Cc2ccc(O)cc2)NC(=O)[C@H](Cc2c[nH]cn2)NC1=O)[C@@H](C)O
notes: Printed as LTFc"HYWAQLC"S
B8: PDI analog 2b (Bpy cross-linked, two arginines) (peptide)
peptide: Ac-LTFCRYWARLCS-NH2
modifications: linker 4-11 via CH2(3,3'-bipyridine-6,6')CH2
SMILES: CC(=O)N[C@@H](CC(C)C)C(=O)N[C@H](C(=O)N[C@@H](Cc1ccccc1)C(=O)N[C@H]1CSCc2ccc(cn2)-c2ccc(nc2)CSC[C@@H](C(=O)N[C@@H](CO)C(N)=O)NC(=O)[C@H](CC(C)C)NC(=O)[C@H](CCCNC(=N)N)NC(=O)[C@H](C)NC(=O)[C@H](Cc2c[nH]c3ccccc23)NC(=O)[C@H](Cc2ccc(O)cc2)NC(=O)[C@H](CCCNC(=N)N)NC1=O)[C@@H](C)O
notes: Printed as LTFC"RYWARLC"S
B9: PDI analog 1b (Bpy cross-linked L,L-dicysteine peptide) (peptide)
peptide: Ac-LTFCHYWAQLCS-NH2
modifications: linker 4-11 via CH2(3,3'-bipyridine-6,6')CH2
SMILES: CC(=O)N[C@@H](CC(C)C)C(=O)N[C@H](C(=O)N[C@@H](Cc1ccccc1)C(=O)N[C@H]1CSCc2ccc(cn2)-c2ccc(nc2)CSC[C@@H](C(=O)N[C@@H](CO)C(N)=O)NC(=O)[C@H](CC(C)C)NC(=O)[C@H](CCC(N)=O)NC(=O)[C@H](C)NC(=O)[C@H](Cc2c[nH]c3ccccc23)NC(=O)[C@H](Cc2ccc(O)cc2)NC(=O)[C@H](Cc2c[nH]cn2)NC1=O)[C@@H](C)O
notes: Printed as LTFC"HYWAQLC"S (C" = Bpy-linked cysteine)
B10: PDI analog 3 (linear (D,L)-dicysteine peptide) (peptide)
peptide: LTF[dC]HYWAQLCS-NH2
modifications: not fully specified (N-terminus); printed as LTFcHYWAQLCS; cysteine pairing not given here
notes: not cross-linked; also called peptide 3
B11: PDI analog 1a (Bph cross-linked L,L-dicysteine peptide) (peptide)
peptide: Ac-LTFCHYWAQLCS-NH2
modifications: linker 4-11 via Biphenyl(4,4'-CH2)2
notes: Printed as LTFC'HYWAQLC'S (C' = Bph-linked cysteine)
B12: PDI analog 3a (Bph cross-linked D,L-dicysteine peptide) (peptide)
peptide: Ac-LTF[dC]HYWAQLCS-NH2
modifications: linker 4-11 via Biphenyl(4,4'-CH2)2
SMILES: CC(=O)N[C@@H](CC(C)C)C(=O)N[C@H](C(=O)N[C@@H](Cc1ccccc1)C(=O)N[C@@H]1CSCc2ccc(cc2)-c2ccc(cc2)CSC[C@@H](C(=O)N[C@@H](CO)C(N)=O)NC(=O)[C@H](CC(C)C)NC(=O)[C@H](CCC(N)=O)NC(=O)[C@H](C)NC(=O)[C@H](Cc2c[nH]c3ccccc23)NC(=O)[C@H](Cc2ccc(O)cc2)NC(=O)[C@H](Cc2c[nH]cn2)NC1=O)[C@@H](C)O
notes: Printed as LTFc'HYWAQLC'S
B13: PDI analog 4b (Bpy cross-linked D,L-dicysteine peptide, two arginines) (peptide)
peptide: Ac-LTF[dC]RYWARLCS-NH2
modifications: linker 4-11 via CH2(3,3'-bipyridine-6,6')CH2
SMILES: CC(=O)N[C@@H](CC(C)C)C(=O)N[C@H](C(=O)N[C@@H](Cc1ccccc1)C(=O)N[C@@H]1CSCc2ccc(cn2)-c2ccc(nc2)CSC[C@@H](C(=O)N[C@@H](CO)C(N)=O)NC(=O)[C@H](CC(C)C)NC(=O)[C@H](CCCNC(=N)N)NC(=O)[C@H](C)NC(=O)[C@H](Cc2c[nH]c3ccccc23)NC(=O)[C@H](Cc2ccc(O)cc2)NC(=O)[C@H](CCCNC(=N)N)NC1=O)[C@@H](C)O
notes: Printed as LTFc"RYWARLC"S
B14: Fluorescein-labeled cross-linked Noxa peptide 6a (peptide)
peptide: AAXLRRIGDXVNLRQKLLN
modifications: N-terminal FITC-Ahx; D-cysteine at position 3; D-Cys 3 and L-Cys 10 cross-linked by Bph; C-terminal amide
notes: also called Fl-6a; Fluo-6a

molecular target: GST-Mcl-1; assay: competitive FP assay, against the parent linear peptide
Sequence (Q07820 whole entry): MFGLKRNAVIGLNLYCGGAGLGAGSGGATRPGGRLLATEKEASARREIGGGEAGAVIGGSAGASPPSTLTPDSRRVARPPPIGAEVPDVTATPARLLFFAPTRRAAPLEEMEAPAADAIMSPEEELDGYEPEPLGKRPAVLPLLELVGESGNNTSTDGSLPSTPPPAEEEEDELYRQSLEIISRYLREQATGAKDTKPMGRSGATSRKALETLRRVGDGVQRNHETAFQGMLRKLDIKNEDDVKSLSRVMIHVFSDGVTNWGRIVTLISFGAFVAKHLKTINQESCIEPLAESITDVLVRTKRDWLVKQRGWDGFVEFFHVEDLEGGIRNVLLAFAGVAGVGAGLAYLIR

fold increase in activity | Binder
67 fold | B1
37 fold | B2

molecular target: GST-Mcl-1; assay: competitive FP assay: displacement of fluorescein-labeled Bak from GST-Mcl-1

IC50 | Binder
230 nM | B3
140 nM | B4
18 nM | B1
73 nM | B2
45 nM | B5
32 nM | B6

molecular target: GST-Mcl-1; assay: ELISA (format not described; target taken to be Mcl-1)

IC50 | Binder
140 nM | B4
75 nM | B1
260 nM | B2
25 nM | B5
37 nM | B6

molecular target: T1, GST-MDMX containing full-length human …; assay: competition ELISA: peptide inhibits GST-MDMX binding to coated His6-p53

IC50 | Binder
4490 nM | Ac-LTF[dC]RYWARLCS-NH2 (linker 4-11 via Biphenyl(4,4'-CH2)2, Printed as LTFc'RYWARLC'S) [PDI analog 4a (Bph cross-linked D,L-dicysteine peptide, two arginines)]
14 nM | B7
1520 nM | B8
890 nM | B9
5520 nM | Ac-LTFCRYWARLCS-NH2 (linker 4-11 via Biphenyl(4,4'-CH2)2, Printed as LTFC'RYWARLC'S) [PDI analog 2a (Bph cross-linked, two arginines)]
339 nM | B10
1850 nM | Ac-LTFCHYWAQLCS-NH2 (cysteine pairing not given here, not cross-linked; also called peptide 1) [PDI analog 1 (linear L,L-dicysteine peptide)]
4810 nM | B11
22 nM | B12
1150 nM | B13

molecular target: GST-Mcl-1; assay: ELISA; the upper end is tied to 5b by Table 3 (25 nM against 340 nM)

fold improvement over the parent peptide | Binder
14 fold | B5

molecular target: GST-Mcl-1; assay: fluorescence polarization assay, labeled peptide on GST-Mcl-1

Kd | Binder
0.8 nM | AAXLRRIGDXVNLRQKLLN (N-terminal FITC-Ahx; Cys 3 and Cys 10 cross-linked by Bph; C-terminal amide, also called Fl-5a; Fluo-5a) [Fluorescein-labeled cross-linked Noxa peptide 5a]
0.7 nM | B14

molecular target: T1, GST-MDMX containing full-length human …; assay: competition ELISA, against linear peptide 3

fold increase in MDMX activity | Binder
24 fold | B7
15 fold | B12

molecular target: GST-Bcl-xL; assay: fluorescence polarization assay, labeled peptide on GST-Bcl-xL
Sequence (Q07817 whole entry): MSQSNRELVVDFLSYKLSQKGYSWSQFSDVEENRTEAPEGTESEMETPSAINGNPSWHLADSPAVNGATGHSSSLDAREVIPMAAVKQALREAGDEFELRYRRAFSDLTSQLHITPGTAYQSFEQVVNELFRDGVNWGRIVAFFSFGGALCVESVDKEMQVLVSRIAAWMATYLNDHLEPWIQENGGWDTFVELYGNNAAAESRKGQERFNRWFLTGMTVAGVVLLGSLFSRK

Kd | Binder
> 2000 nM | AAXLRRIGDXVNLRQKLLN (N-terminal FITC-Ahx; Cys 3 and Cys 10 cross-linked by Bph; C-terminal amide, also called Fl-5a; Fluo-5a) [Fluorescein-labeled cross-linked Noxa peptide 5a]
> 2000 nM | B14

molecular target: T2, GST-MDM2 containing full-length human MDM2 (human, UniProt Q00987 1-491); assay: competition ELISA; reference not named in the sentence (peptide 1 or PDI)
T2 construct: mature; 'mature' stands for full-length; not shown: GST tag
T2 sequence (Q00987 whole entry): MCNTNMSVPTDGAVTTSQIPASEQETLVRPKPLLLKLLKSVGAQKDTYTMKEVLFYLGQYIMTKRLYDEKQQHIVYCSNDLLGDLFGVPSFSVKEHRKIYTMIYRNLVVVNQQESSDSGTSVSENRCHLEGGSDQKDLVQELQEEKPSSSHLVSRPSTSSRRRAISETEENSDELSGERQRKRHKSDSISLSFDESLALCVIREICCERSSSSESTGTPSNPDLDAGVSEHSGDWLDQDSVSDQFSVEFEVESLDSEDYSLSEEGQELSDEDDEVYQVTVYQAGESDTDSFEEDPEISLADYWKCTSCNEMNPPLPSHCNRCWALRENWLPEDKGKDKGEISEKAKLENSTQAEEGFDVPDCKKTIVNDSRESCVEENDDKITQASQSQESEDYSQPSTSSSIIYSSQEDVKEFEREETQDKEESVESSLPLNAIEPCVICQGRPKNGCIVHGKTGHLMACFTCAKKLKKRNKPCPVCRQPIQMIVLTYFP

fold increase in MDM2 activity | Binder
> 3 fold | B10

molecular target: T2, GST-MDM2 containing full-length human …; assay: competition ELISA: peptide inhibits GST-MDM2 binding to coated His6-p53

IC50 | Binder
208 nM | Ac-LTF[dC]RYWARLCS-NH2 (linker 4-11 via Biphenyl(4,4'-CH2)2, Printed as LTFc'RYWARLC'S) [PDI analog 4a (Bph cross-linked D,L-dicysteine peptide, two arginines)]
5.4 nM | B7
35 nM | B9
244 nM | Ac-LTFCRYWARLCS-NH2 (linker 4-11 via Biphenyl(4,4'-CH2)2, Printed as LTFC'RYWARLC'S) [PDI analog 2a (Bph cross-linked, two arginines)]
13 nM | B10
57 nM | Ac-LTFCHYWAQLCS-NH2 (cysteine pairing not given here, not cross-linked; also called peptide 1) [PDI analog 1 (linear L,L-dicysteine peptide)]
39 nM | B11
8.3 nM | B12

molecular target: GST-Mcl-1; assay: fluorescence polarization assay, Mcl-1 against Bcl-xL

fold selectivity for Mcl-1 over Bcl-xL | Binder
> 2000 fold | AAXLRRIGDXVNLRQKLLN (N-terminal FITC-Ahx; Cys 3 and Cys 10 cross-linked by Bph; C-terminal amide, also called Fl-5a; Fluo-5a) [Fluorescein-labeled cross-linked Noxa peptide 5a]
> 2000 fold | B14
